Test results from US20110033951, “ASSAY METHOD AND KIT FOR NUCLEIC ACID BINDING PROTEIN” (Hiroshima University, published 2011).

Assays:
NF-kappaB p50 [1] = molecular target: T1, NF-kappaB p50 (Homo sapiens, UniProt P19838 P19838:1-433); assay: competition; decoy restored strand exchange; settings: tags: Promega; chain copies: 2
Description: (§1) The fluorescence value was measured using a real-time PCR apparatus Rotor-Gene 2000 (Corbett Life Science).

SP1 [2] = molecular target: T2, SP1 (Homo sapiens, UniProt P08047 P08047:2-785); assay: competition; NF-kB decoy did not affect SP1/DNA signal; settings: tags: Promega
T2 sequence (P08047 2-785, one chain of several): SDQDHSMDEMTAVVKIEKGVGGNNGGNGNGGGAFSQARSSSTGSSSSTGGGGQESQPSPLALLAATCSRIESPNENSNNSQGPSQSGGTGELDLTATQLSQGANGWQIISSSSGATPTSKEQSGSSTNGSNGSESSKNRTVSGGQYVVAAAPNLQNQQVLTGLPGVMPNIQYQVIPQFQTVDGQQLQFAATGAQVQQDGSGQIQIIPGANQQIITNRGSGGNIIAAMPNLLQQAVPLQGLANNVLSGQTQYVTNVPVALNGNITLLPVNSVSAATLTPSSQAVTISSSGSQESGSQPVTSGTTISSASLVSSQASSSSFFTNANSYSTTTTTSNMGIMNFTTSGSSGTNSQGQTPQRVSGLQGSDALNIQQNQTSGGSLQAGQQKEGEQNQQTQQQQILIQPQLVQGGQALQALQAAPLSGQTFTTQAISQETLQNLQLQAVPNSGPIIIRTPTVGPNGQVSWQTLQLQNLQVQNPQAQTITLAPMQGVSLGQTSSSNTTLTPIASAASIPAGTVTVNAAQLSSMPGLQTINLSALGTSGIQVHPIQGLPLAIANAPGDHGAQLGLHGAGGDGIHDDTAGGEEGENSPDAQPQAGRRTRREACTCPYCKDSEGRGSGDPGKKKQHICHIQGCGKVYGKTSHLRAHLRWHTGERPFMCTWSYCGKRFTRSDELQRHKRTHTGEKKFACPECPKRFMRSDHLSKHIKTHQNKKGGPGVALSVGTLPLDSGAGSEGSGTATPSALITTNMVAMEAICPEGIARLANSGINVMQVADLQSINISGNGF
Description: (§2) A mixed solution of 31F/42 and 05C/08 (40 fmol each), 800 fmol of the decoy (NF01/02 or SP01/02), a solution of a protein mixture (2.5 pmol of recombinant human SP1 and 0.125 pmol of recombinant human NFκB p50) were mixed into a reaction solution (10 mM HEPES-NaOH pH 7.9, 50 mM KCl, 0.1 mM EDTA, 5 mM DTT, 10% glycerol, 0.05% IGEPAL CA-630, 15 μL) and reacted at 25° C. for 30 minutes. A mixed solution of 32D/41 and 06B/07 (80 fmol each) was added thereto, and 50 μL of the resulting mixture was then reacted at 25° C. for 120 minutes. The fluorescence values of fluorescein and Cy3 were measured using a fluorescence plate reader Ultra (Tecan Group Ltd.). The fluorescein was excited at 485 nm, and its fluorescence was measured at 535 nm. The Cy3 was excited at 535 nm and its fluorescence was measured at 595 nm.

SP1 [3] = molecular target: T2, SP1; assay: competition; decoy lowered only SP1/DNA signal; settings: tags: Promega
Description: as §2

NF-kappaB p50 [4] = molecular target: T1, NF-kappaB p50; assay: competition; SP1 decoy did not affect NF-kB/DNA signal; settings: tags: Promega; chain copies: 2
Description: as §2

NF-kappaB p50 [5] = molecular target: T1, NF-kappaB p50; assay: competition; decoy without NF-kB site did not compete; settings: tags: Promega; chain copies: 2
Description: as §1

T1 sequence (P19838 1-433, one chain of several): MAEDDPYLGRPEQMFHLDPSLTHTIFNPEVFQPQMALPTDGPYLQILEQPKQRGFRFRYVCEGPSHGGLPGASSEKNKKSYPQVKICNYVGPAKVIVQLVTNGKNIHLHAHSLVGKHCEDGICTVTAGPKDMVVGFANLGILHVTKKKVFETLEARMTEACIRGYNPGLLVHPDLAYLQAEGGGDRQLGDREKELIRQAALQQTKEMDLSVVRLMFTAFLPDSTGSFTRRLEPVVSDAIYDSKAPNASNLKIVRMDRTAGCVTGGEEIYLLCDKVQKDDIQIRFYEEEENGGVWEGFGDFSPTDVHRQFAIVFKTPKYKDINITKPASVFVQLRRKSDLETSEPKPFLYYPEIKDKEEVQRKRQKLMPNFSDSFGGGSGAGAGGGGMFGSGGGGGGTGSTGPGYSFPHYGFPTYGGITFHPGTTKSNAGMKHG

B1: NFcpt decoy (NF01/02) (dsDNA)
DNA 1: GCACTAGGGACTTTCCGCCACG
DNA 2: CGTGGCGGAAAGTCCCTAGTGC
NF-kappaB p50 [1]
  binding result: binds
SP1 [2]
  binding result: no binding

B2: SP01/02 decoy (dsDNA)
DNA 1: TCGAGCGGGGCGGGGCGACGAA
DNA 2: TTCGTCGCCCCGCCCCGCTCGA
SP1 [3]
  binding result: binds
NF-kappaB p50 [4]
  binding result: no binding

B3: APcpt decoy (dsDNA)
DNA 1: GGTGTCATGAGTCAGCTCGGAG
DNA 2: CTCCGAGCTGACTCATGACACC
NF-kappaB p50 [5]
  binding result: no binding
